Results on 3 substances are retold here after publication PMC5503242.

Assay [1] concerns the target ClC-ec1, E. coli ClC protein (E. coli) (UniProt P37019). Kind of assay: SEC; purified ClC-ec1, apparent mass around 150 kDa with associated detergent.
The target in assay [2] is ClC-rm1, ClC protein of Ralstonia metallidurans (WP_011515329), with C-terminal 6x(His) tag (Ralstonia metallidurans). Kind of assay: SDS-PAGE (dimer resistant to denaturation); NUPAGE 4-12% Bis-Tris gel of ClC-rm1 eluted from Ni2+ resin or after SEC; Western blot with His tag antibody.
The target is the same in assay [3]. Description: SEC; Superose 6 or Superdex 200, 0.03% (w/v) DDM, 150 mM NaCl, 5 mM KCl, 20 mM Tris-HCl pH 8.0; also after exchange to DM, OG or amphipol A8-35.
Assay [4] addresses ClC-rm1_eGFP, ClC-rm1 with eGFP and a 10x(His) tag at the C-terminus (Ralstonia metallidurans). Described as above.

For “ClC-ec1, E. coli ClC protein (from UniProt P37019 1-473) (natural protein)”, in assay [1], the stoichiometry N was 2.

In the case of “ClC-rm1, ClC protein of Ralstonia metallidurans (WP_011515329), with C-terminal 6x(His) tag (natural protein)”, the stoichiometry N in assay [2] and in assay [3] was 2 in each case. As for “ClC-rm1_eGFP, ClC-rm1 with eGFP and a 10x(His) tag at the C-terminus (natural protein)”, the stoichiometry N in assay [4] was found to be 2.
